# Ends that are not written are not given here.
# What was measured:
# [1] = molecular target: GST-BCL-2δC21 fusion protein [GST: P08515]; experiment: fluorescence polarization, 25 nM fluorescein-peptide titrated with GST-BCL-2, 37 C
# [2] = molecular target: GST-BCL-2δC21 fusion protein [GST: P08515]; experiment: fluorescence polarization, unlabelled peptide displacing 25 nM fluoresceinated BIDBH3 from 1 µM GST-BCL-2
# [3] = molecular target: GST-BCL-2δC21 fusion protein [GST: P08515]; experiment: fluorescence polarization, Kd of BADBH3 against Kd of BIDBH3 on BCL-2
# [4] = molecular target: GST-BCL-2δC21 fusion protein [GST: P08515]; experiment: fluorescence polarization, 25 nM fluorescein-peptide titrated with GST-BCL-2, 37 C; SD +/- 11
# [5] = molecular target: GST-BCL-2δC21 fusion protein [GST: P08515]; experiment: fluorescence polarization, 25 nM fluorescein-peptide titrated with GST-BCL-2, 37 C; SD +/- 272
# [6] = molecular target: GST-BCL-2δC21 fusion protein [GST: P08515]; experiment: fluorescence polarization, unlabelled peptide displacing 25 nM fluoresceinated BIDBH3 from 1 µM GST-BCL-2; SD +/- 1648
# [7] = molecular target: GST-BCL-2δC21 fusion protein [GST: P08515]; experiment: fluorescence polarization, 25 nM fluorescein-peptide titrated with GST-BCL-2, 37 C; SD +/- 6
# [8] = molecular target: GST-BCL-2δC21 fusion protein [GST: P08515]; experiment: fluorescence polarization, unlabelled peptide displacing 25 nM fluoresceinated BIDBH3 from 1 µM GST-BCL-2; SD +/- 60
# Sequence of NOXAABH3 (peptide) (peptide): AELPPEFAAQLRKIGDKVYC
Molecule,Kd [1],IC50 [2],further results
NOXABBH3 (peptide),> 1000 nM,> 30000 nM,–
NOXAABH3 (peptide),> 1000 nM,> 30000 nM,–
NLWAAQRYGRELRRMSDEFVDSFKK (not fully specified) [BADBH3],–,–,fold greater affinity than BIDBH3 peptide [3]: 5 fold; Kd [4]: 41 nM
MEGSDALALRLACIGDEMDV (not fully specified) [BIKBH3],–,–,Kd [5]: 485 nM; IC50 [6]: 4920 nM
VIPMAAVKQALREAGDEFEL (fluorescein at the amino-terminus via an AHA linker in the Kd assays; unlabelled as competitor and on mitochondria) [BCLXBH3],> 1000 nM,> 30000 nM,–
EDIIRNIARHAAQVGASMDR (not fully specified) [BIDBH3 mut],> 1000 nM,> 30000 nM,–
LWAAQRYGRELRRMSDEFEGSFKGL (not fully specified) [mBADBH3],–,–,Kd [7]: 39 nM; IC50 [8]: 173 nM
